Assay results taken from the supplement of paper PMC9942255.
Values joined by “and” are separate entries in the source; they are usually repeats but may differ in a detail not shown here. Identical values can stand only once.

System: Bacillus subtilis DB104 (SP-AmyQ fusion secretion)
Experiment: AmyQ secretion efficiency, weighted average sort bin (1 = best secretion, 10 = worst) (bin number (weighted average, 1-10)); higher = lower secretion efficiency
How it was run: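 With fluorescein-starch as substrate, a B. subtilis DB104 library expressing mature AmyQ fused to designed signal peptides (integrated at amyE) was encapsulated at about 0.3 cells per ~65 nL alginate bead. After about 13 h at room temperature, beads were nile red stained, and occupied beads were sorted by large-particle flow cytometry into 10 equally populated bins by green/red fluorescence ratio. Illumina sequencing of the amplicons in each bin was used to calculate the secretion score, which is the read-frequency-weighted average bin number, normalised to beads per bin, with low-abundance sequences left out.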

Row | Sequence | AmyQ secretion efficiency
1 | MKKRLIAPMLLSAASLAFFAMSGSQQAAAY | 4.52
2 | MRPVFPLILSAVLFLSCFFGARQTEASKSKR | 2.19
3 | MKRTWNVCLTALLSVLLVAPFHAEAKKP | 4.3
4 | MNFKKTVVSALSISALALSVSGVASAHTI | 3.63
5 | MRKKTKNRLISSQKSTVVISSLLFPGAAGASSK | 8.12
6 | MTKLKMLSMLTVMIASLFIFSSQALDVQY | 6.18
7 | MTSGTLWISLLFALTLIFTMAFSNMSAQAAGK | 2.62
8 | MLKKIARRKCKKRVGSLLFFTAPASAHVS | 7.33
9 | MGRIKTKITILLVLLLLLAGGYTYIN | 5.32
10 | MKKRKVLLSALLLLLFAFEPSASGKKL | 2.85
11 | MKQGKFSVKKRKLLMLTLVVAPKEKAEAASS | 8.14
12 | MKKKQVMLALTAAAGLGLTALHSAPAAKSAPL | 3.28
13 | MRNRRKTSLLLAGLCTAAQMVFVTHASAEES | 3.33
14 | MRKKLKWLSFLLGFIILLFLFTFGFSNNDS | 5.5
15 | MHLIRAAGAVCLAVVLIAGCRFNEDQHQAEGDED | 6.29
16 | MRKKRVITCVMAASLTLGSLLAAAIATAKED | 3.82
17 | MKKRITYSLLALLAVVAFAFTRSSKAKAAEA | 3.67
18 | MSTGTILVIASILLSFLSVLSGGHHESKAFPV | 6.64
19 | MKKKQVSHARSTKTRRQFVIAVFHTIHASELTP | 8.17
20 | MKKTTTKYFMFGLVMGFSQFQPSTVFAADK | 3.56
21 | MNKKYFVLIVCIIFTSALFPTRRKKKRVTAAQG | 8.37
22 | MKKAFILSAAAAVGLFTFKRRQQASAKEL | 7.06
23 | MSSGIIVAGLAVSAVVGSSMAAAPAEAKTI | 6.57
24 | MRHKIITFILAVVVIIIIGNMIGGGGGSEAEDD | 6.34
25 | MRIKQCVICLSLLVFGTTAAHAEET | 2.98
26 | MPYLKRVLLLLVTGLFMSLFAVTATASFQTG | 2.53

Row | Sequence | AmyQ secretion efficiency
27 | MLKKKWMVGLLAGCLAAGGFSYNSPPFFFGAAFATEN | 5.86
28 | MKNMSCKTSGSTTGGTSFLTIGPLAHAQNS | 6.59
29 | MFNRLFRVCRRAALIMAFTLPNSVYAQKP | 4.23
30 | MKLAKRVSALTPSTTLAITFKAKEL | 6.49
31 | MKRTWNVCLTALLSVLLVAGSVKRKKHAEAKKP | 7.43
32 | MKKKLAAGLTASAIVGTTLVVTPKEAATI | 4.56
33 | MNLLFNLSMLTVMIASVFIFSSHALAAQY | 2.94
34 | MKRIRIPMTLALGAALTIAPLSFFSAEEN | 6.31
35 | MKRIRIPMTLSTLALGAALTIAPLSFASAEEN | 3.35
36 | MKVPKTMLLSTAAGLLLSLTATSVSWHYV | 4.99
37 | MRIFKKARKKRRKSFLIATVNVNTAHAAID | 6.58
38 | MHLIRAAGAVCLAVVLIAGCRFNEDQHQAEMENT | 6.08
39 | MMIKQCVICLSLLVFGTTAAHAARR | 5.39
40 | MKKRFSLIMMTGLLFGLTEEEAFAAEK | 2.39
41 | MRIFKKAVFVIMISFLIARRRKKRAHAAID | 8.88
42 | MKKKQVMLALTAAAGLGLTALHSAPASVVAVAASAKAAPL | 1.02
43 | MILTKVLTGSVLSLGLLVSASPAFATSP | 1.75
44 | MKWMCSICCAAVLLAGGAQAEAV | 3.54
45 | MKKRLIAPMLLSAASLAFFAMSGSAQCAAY | 6
46 | MKKLIMALVILGALKKRKKKISADSS | 8.07
47 | MKKVLMAFIICLSLILSVLAAPPSGMKAESV | 1.84
48 | MKTKTLFIFSAILTLSIFAPNETFAQTK | 1.96
49 | MKKKMLNLFLAAGLTASAIVGTTLVVTPAEAATI | 4.26
50 | MKLSVKIAGVLTVAAAAMTAKMYRTAKGN | 7.39
51 | MKVLLSALLLLLFAFEPSASVKKL | 6.34
52 | MNLRKILLSSALSLGMLEEEDEEVLATSS | 4.45

Row | Sequence | AmyQ secretion efficiency
53 | MGMKKKLSLGVASAALGLALVGGGSWAAFN | 6.13
54 | MGLGTTFLSVAVAASFMSLSISLPGVQAAEG | 2.45
55 | MKKRLIAPMLLSAASLAFFAMFIIGSTAQAAAY | 4.67
56 | MRPVFPLILSAVLFLSCFRASASKR | 6.81
57 | MTMLRKIIGWILLLCIIDDDEEDVIASGKEV | 5.3
58 | MRIFKKAVFVIMISFLIATVNVNTAHAAEE | 1.56
59 | MKQGKFSRYYKSLLMLTLVVAPKEKAEAASS | 6.74
60 | MRSYIKVLTMCFLGLILFVPTTLADNS | 1.67
61 | MKKKIVAGLAVSAVVRRRRAAAPAEAKTI | 7.4
62 | MKSKWMSGLLLVAVGFSFTQVMTSFFTPASPVHAGET | 6.76
63 | MKSKGSIMACLILFSFTITTFINTETISQFSN | 7.33
64 | MKKRLIAPMLLSAASLAFFAMSGSAQPAAY | 5.92
65 | MIVIILLFISIIVFLVVTIQPQPS | 8.71
66 | MFKFKKNFRRRRRRALMSISLFSATASAAST | 6.72
67 | MKLRKVLTGSVLSLGLLDDEEDDAFATSP | 7.86
68 | MKSKWMSGLLLVAVGFSFTQVMLHAGET | 6.15
69 | MGLGKKLSVAVAASFMSLSISLPGVQAAPG | 2.04
70 | MKRIRIPMTLALGAALTIAPLSFASAADE | 2.12
71 | MKKLLAAGIIGLLTVSIASPMFAAEK | 3.35
72 | MKVPKTMLLSTAAGLLLSLTATSWSAHYV | 6.27
73 | MKKRLIQVMIMFTLLLRRKRRRRADAADS | 8.45
74 | MTKLKMLSMLTVMIASLFIFSKRRALAVQY | 6.11
75 | MKVLLSALLLLLFAFAASASGKKL | 6.06
76 | MKRIRIPMTLALGAALTIAPLSFRSAEEN | 7.87
77 | MKKKLAAGLTASAIVGTTLVVTPQEAATI | 5.9
78 | MYKKFVPFAVFLFLFFVSFEMMENPHALDY | 7.08

Row | Sequence | AmyQ secretion efficiency
79 | MKKAFLVFLSVVLVTTVFLVKQQESVPQAKQL | 7.73
80 | MKIRKILLSSALSFGMLISAVPVLAAGT | 3.66
81 | MKNMSCKLVVSVTLFFSFLTIGPLAHTQNS | 4.17
82 | MKKAFLVFLSVVLVTTVFLVKQQESVAQGKQL | 3.58
83 | MKQIRKKRKKFMLLAMTGQTALAKDV | 7.04
84 | MKLSVKIAGVLTVAAAAMTAKMYDTAKGN | 4.44
85 | MLKKIALTLCPAIVGSLLFFTAPASDHVS | 5.33
86 | MRRGKKLSVAVAASFMSLSISLPGVQAAEG | 1.3
87 | MTMLRKIIGWILLLCIIPLFAFTVIASRKEV | 6.1
88 | MKKQIITATTAVVLGSTLFAGAMSAQSI | 1.54
89 | MKLKSKLLLSCLALSTVFVATTIANSPTH | 3.78
90 | MMGRKVLTGSVLSLGLLVSASPAFATSP | 2.07
91 | MKKIVSILFMFGLVMGFSQFQPSTVFAADK | 3.41 and 2.54
92 | MKRLLSTLLIGIMLLTFAPSPAATVFPVAFAKQD | 1.66
93 | MKSKWMSGLLLVAVGFSFTQVMVHWGET | 5.88
94 | MKRLLVSLRVWMVFLMNWVTPDRKTHAAAVY | 6.55
95 | MKKQIITATTAVVLGSTLFAGAQSAQSI | 4.07
96 | MTKKAWFLPLVCVLLISGWLAPAASASHQTT | 2.01
97 | MKQRRIMIFLTSFMLLAMTGQTALAKDV | 3.05
98 | MKTLRNMLSTLCVLMILSGVIFFGLKIDAKDI | 6.22
99 | MKLSVKIAGVLTVAAAAMTAKMYATFTGTFAATAKGN | 7.49
100 | MRSYIKVLTMCFLGLILFVPTGVFGSSPPFAAALADNS | 3.3
101 | MKKRKRRNFKRFIAAFLVLALMISLVPADFLAKST | 4.42
102 | MKKQIITATTAVVLGSTLFAGAASMQSI | 3.83
103 | MTGTIITATTAVVLGSTLFAGAASAQSI | 2.31
104 | MKIVLLSALLLLLFAFEPSASGKKL | 4.93

Row | Sequence | AmyQ secretion efficiency
105 | MKRFSTAYLLLGILCSAAVFLIGAPSRALGKKK | 7.04
106 | MTMLRKIIGWILLLCIIASFIVTPLFAFTVIASGKEV | 7.88
107 | MPIFKKVMMCLAVTLVFGSMSFPTLTNSGGFKE | 6.15
108 | MTKRLSTTLTFLGIQAFAGGIILATAVLAAVFYLTDEDQAAAV | 6.23
109 | MKKKLAAGLTASAIVGTTLVVVFAEAATI | 6.57
110 | MKKLLAAGIIGLLTVSIASPNFAAEK | 5.52
111 | MKKVMLATALFLGLTPAGVNAADL | 4.08
112 | MKVCQKSIVRFLVSLIIGTFVISVPFMANARKR | 3.31
113 | MKKRKRRNFKRFIAAFLVLALMISLVPADCLAKST | 3.04
114 | MKKVLMAFIICLSLILSVLAAPPSGAKAASE | 1.49
115 | MPYLKRVLLLLVTGLFMSLFAVTATSSAQTG | 1.26
116 | MGLGKKLSVAVAASFMSLSISLPGWQAAEG | 5.06
117 | MFNRLFRVCFLAALIMAFTLPNSIYAQKP | 2.87
118 | MNLRKILLSSALSLGMLTLFFLSAVTVSAAPVLATSS | 1.71
119 | MRSYIKVLTMCFLGLILFVPTALQDNS | 6.11
120 | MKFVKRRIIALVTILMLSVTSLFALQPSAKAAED | 2.86
121 | MKKVLMAFIICLSLILSAKAESV | 4.24
122 | MKKSQYFIVFICFFVLFSVHPIASAAADS | 4.61
123 | MKFVKRRIIALVTILMLSVTSLFAKKRRRAKAAEH | 7.85
124 | MKLKSKLLLSCLALSTVFVATTIANEPTH | 7.21
125 | MKLAKRVSALTPSTTLAITIKAKEL | 8.5
126 | MAIIIAIIAAVIVIAALITFRRRNASPG | 8.26
